Assay results taken from US10472401B2, “Peptides and combination of peptides for use in immunotherapy against ovarian cancer and other cancers” (immatics biotechnologies GmbH, priority 2015, dated 2019).

Biological target: HLA-A*02:01 (Homo sapiens, UniProt P04439, D140Y/D185E/D98H/E176V/E277Q/G131W/G231S/I119V/I121R/I166T/I218V/L300P/L318F/N151K/N90K/P208A/P217A/Q86G/Q94H/R138H/R169H/T345S)
Test: MHC binding assay (UV-ligand exchange, ELISA of stabilized MHC complexes)
Details: MHC class I binding score; binding to HLA-A*02:01 ranged by peptide exchange yield (UV-ligand exchange, ELISA)
Text: Candidate peptides for T cell based therapies according to the present invention were further tested for their MHC binding capacity (affinity). The individual peptide-MHC complexes were produced by UV-ligand exchange, where a UV-sensitive peptide is cleaved upon UV-irradiation, and exchanged with the peptide of interest as analyzed. Only peptide candidates that can effectively bind and stabilize the peptide-receptive MHC molecules prevent dissociation of the MHC complexes. To determine the yield of the exchange reaction, an ELISA was performed based on the detection of the light chain (β2m) of stabilized MHC complexes. The assay was performed as generally described in Rodenko et al. (Rodenko et al., 2006).
96 well MAXISorp plates (NUNC) were coated over night with 2 ug/ml streptavidin in PBS at room temperature, washed 4× and blocked for 1h at 37° C. in 2% BSA containing blocking buffer. […] Peptide-MHC monomers of the UV-exchange reaction were diluted 100 fold in blocking buffer. Samples were incubated for 1h at 37° C., washed four times, incubated with 2 ug/ml HRP conjugated anti-82m for 1h at 37° C., washed again and detected with TMB solution that is stopped with […]. Absorption was measured at 450 nm. Candidate peptides that show a high exchange yield (preferably higher than 50%, most preferred higher than 75%) are generally preferred for a generation and production of antibodies or fragments thereof, and/or T cell receptors or fragments thereof, as they show sufficient avidity to the MHC molecules and prevent dissociation of the MHC complexes.

Row | Peptide exchange | Substance
1 | ″++″ (≥20% = ++) | 548 (ALWENPESGEL; listed as Homo sapiens) [compound 548]
2 | ″+++″ (≥50% = +++) | 465 (QLCDLNAEL; listed as Homo sapiens) [compound 465]
3 | ″++++″ (≥75% = ++++) | 466 (VLIANLEKL; listed as Homo sapiens) [compound 466]
4 | ″+++″ (≥50% = +++) | 75 (GLLEVMVNL; listed as Homo sapiens) [compound 75]
5 | ″++″ (≥20% = ++) | 140 (YMDAPKAAL; listed as Homo sapiens) [compound 140]
6 | ″++″ (≥20% = ++) | 275 (YLVYILNEL; listed as Homo sapiens) [compound 275]
7 | ″++″ (≥20% = ++) | 565 (ALQETPTSV; listed as Homo sapiens) [compound 565]
8 | ″++++″ (≥75% = ++++) | 602 (YLLEQIKLIEV; listed as Homo sapiens) [compound 602]
9 | ″+++″ (≥50% = +++) | 16 (VLFQGQASL; listed as Homo sapiens) [compound 16]
10 | ″+++″ (≥50% = +++) | 473 (AMATESILHFA; listed as Homo sapiens) [compound 473]
11 | ″+++″ (≥50% = +++) | 29 (KMLGIPISNILMV; listed as Homo sapiens) [compound 29]
12 | ″+++″ (≥50% = +++) | 139 (SVMEVNSGIYRV; listed as Homo sapiens) [compound 139]
13 | ″+++″ (≥50% = +++) | 531 (YTLPIASSIRL; listed as Homo sapiens) [compound 531]
14 | ″+++″ (≥50% = +++) | 298 (VMITKLVEV; listed as Homo sapiens) [compound 298]
15 | ″++++″ (≥75% = ++++) | 348 (ILLDVKTRL; listed as Homo sapiens) [compound 348]
16 | ″+++″ (≥50% = +++) | 607 (RLYSGISGLEL; listed as Homo sapiens) [compound 607]
17 | ″++″ (≥20% = ++) | 274 (SLLFSLFEA; listed as Homo sapiens) [compound 274]
18 | ″+++″ (≥50% = +++) | 351 (SLIPNLRNV; listed as Homo sapiens) [compound 351]
19 | ″++″ (≥20% = ++) | 615 (VLPPDTDPA; listed as Homo sapiens) [compound 615]
20 | ″++″ (≥20% = ++) | 270 (LLLDEEGTFSL; listed as Homo sapiens) [compound 270]
21 | ″+++″ (≥50% = +++) | 296 (FMEGAIIYV; listed as Homo sapiens) [compound 296]
22 | ″++″ (≥20% = ++) | 197 (ALGPEGGRV; listed as Homo sapiens) [compound 197]
23 | ″+++″ (≥50% = +++) | 606 (ALWETEVYI; listed as Homo sapiens) [compound 606]
24 | ″++++″ (≥75% = ++++) | 329 (FLVTLNNVEV; listed as Homo sapiens) [compound 329]

Row | Peptide exchange | Substance
25 | ″+++″ (≥50% = +++) | 600 (ALAAPDIVPAL; listed as Homo sapiens) [compound 600]
26 | ″++++″ (≥75% = ++++) | 52 (FLLAHGLGFLL; listed as Homo sapiens) [compound 52]
27 | ″+++″ (≥50% = +++) | 304 (MTLGQIYYL; listed as Homo sapiens) [compound 304]
28 | ″+++″ (≥50% = +++) | 95 (SVIPQIQKV; listed as Homo sapiens) [compound 95]
29 | ″++″ (≥20% = ++) | 570 (ALANQIPTV; listed as Homo sapiens) [compound 570]
30 | ″+++″ (≥50% = +++) | 14 (AAYGGLNEKSFV; listed as Homo sapiens) [compound 14]
31 | ″++++″ (≥75% = ++++) | 61 (FLQGYQLHL; listed as Homo sapiens) [compound 61]
32 | ″+++″ (≥50% = +++) | 562 (YLEELPEKLKL; listed as Homo sapiens) [compound 562]
33 | ″+++″ (≥50% = +++) | 311 (RLYTGMHTV; listed as Homo sapiens) [compound 311]
34 | ″+++″ (≥50% = +++) | 476 (ALMERTGYSMV; listed as Homo sapiens) [compound 476]
35 | ″+++″ (≥50% = +++) | 334 (TLTKVLVAL; listed as Homo sapiens) [compound 334]
36 | ″++″ (≥20% = ++) | 220 (LLQKFVPEI; listed as Homo sapiens) [compound 220]
37 | ″+++″ (≥50% = +++) | 243 (LLLNELPSV; listed as Homo sapiens) [compound 243]
38 | ″+++″ (≥50% = +++) | 164 (ALLPQPKNLTV; listed as Homo sapiens) [compound 164]
39 | ″++++″ (≥75% = ++++) | 568 (TLYDIAHTPGV; listed as Homo sapiens) [compound 568]
40 | ″++″ (≥20% = ++) | 204 (KIAENVEEV; listed as Homo sapiens) [compound 204]
41 | ″++″ (≥20% = ++) | 559 (VTVPPGPSL; listed as Homo sapiens) [compound 559]
42 | ″+++″ (≥50% = +++) | 57 (TLAELQPPVQL; listed as Homo sapiens) [compound 57]
43 | ″+++″ (≥50% = +++) | 468 (YLRSVGDGETV; listed as Homo sapiens) [compound 468]
44 | ″+++″ (≥50% = +++) | 472 (KLLEVSDDPQV; listed as Homo sapiens) [compound 472]
45 | ″+++″ (≥50% = +++) | 530 (VMYADIGGMDI; listed as Homo sapiens) [compound 530]
46 | ″+++″ (≥50% = +++) | 59 (IMEDIILTL; listed as Homo sapiens) [compound 59]
47 | ″++″ (≥20% = ++) | 222 (NLIENVQRL; listed as Homo sapiens) [compound 222]
48 | ″+++″ (≥50% = +++) | 315 (YLQDVVEQA; listed as Homo sapiens) [compound 315]

Row | Peptide exchange | Substance
49 | ″+++″ (≥50% = +++) | 167 (KVLEVTEEFGV; listed as Homo sapiens) [compound 167]
50 | ″+++″ (≥50% = +++) | 479 (SLFGNSGILENV; listed as Homo sapiens) [compound 479]
51 | ″+++″ (≥50% = +++) | 306 (ALVNVQIPL; listed as Homo sapiens) [compound 306]
52 | ″+++″ (≥50% = +++) | 545 (LLADLLHNV; listed as Homo sapiens) [compound 545]
53 | ″+++″ (≥50% = +++) | 236 (GLLEAKVSL; listed as Homo sapiens) [compound 236]
54 | ″+++″ (≥50% = +++) | 514 (ILVDWLVQV; listed as Homo sapiens) [compound 514]
55 | ″+++″ (≥50% = +++) | 26 (ALLELAEEL; listed as Homo sapiens) [compound 26]
56 | ″+++″ (≥50% = +++) | 215 (QLINHLHAV; listed as Homo sapiens) [compound 215]
57 | ″+++″ (≥50% = +++) | 122 (FLLAEDDIYL; listed as Homo sapiens) [compound 122]
58 | ″+++″ (≥50% = +++) | 571 (LLLTTIPQI; listed as Homo sapiens) [compound 571]
59 | ″+++″ (≥50% = +++) | 619 (ALQDRVPLA; listed as Homo sapiens) [compound 619]
60 | ″++″ (≥20% = ++) | 127 (KIGDEPPKV; listed as Homo sapiens) [compound 127]
61 | ″++″ (≥20% = ++) | 412 (YLDDLNEGVYI; listed as Homo sapiens) [compound 412]
62 | ″++++″ (≥75% = ++++) | 358 (ALDEYTSEL; listed as Homo sapiens) [compound 358]
63 | ″+++″ (≥50% = +++) | 503 (SLNHFTHSV; listed as Homo sapiens) [compound 503]
64 | ″+++″ (≥50% = +++) | 82 (FLSSVTYNL; listed as Homo sapiens) [compound 82]
65 | ″+++″ (≥50% = +++) | 195 (GLFADLLPRL; listed as Homo sapiens) [compound 195]
66 | ″++″ (≥20% = ++) | 513 (SLWPSPEQL; listed as Homo sapiens) [compound 513]
67 | ″++″ (≥20% = ++) | 566 (VIADGGIQNV; listed as Homo sapiens) [compound 566]
68 | ″+++″ (≥50% = +++) | 525 (VLLEAGEGLVTI; listed as Homo sapiens) [compound 525]
69 | ″++++″ (≥75% = ++++) | 196 (YLYSVEIKL; listed as Homo sapiens) [compound 196]
70 | ″+++″ (≥50% = +++) | 71 (GILARIASV; listed as Homo sapiens) [compound 71]
71 | ″++++″ (≥75% = ++++) | 553 (SLLNQDLHWSL; listed as Homo sapiens) [compound 553]
